Measured values reported in PMC5673899, “Structural basis for receptor recognition of pollen tube attraction peptides” (Nature Communications, 2017).
“Also recorded” adds a separate entry of the source.

Assays:
[1] = tested on: AtPRK3^LRR and AtPRK6^LRR; experiment: Gel filtration assay, AtPRK3^LRR-AtPRK6^LRR interaction in the presence of AtLURE1.2; type: binding, Arabidopsis
Description: The AtPRK6^LRR and AtLURE1.2 proteins purified as described above were subjected to gel filtration (Hiload 200, GE Healthcare) in buffer containing 10 mM Bis-Tris pH 6.0 and 100 mM NaCl. A mixture of the purified AtPRK6^LRR and AtLURE1.2 proteins with a molar ratio of about 1:3 were incubated in 4 °C for 30 min before gel filtration analysis. Samples from relevant fractions were applied to SDS-PAGE and visualized by Coomassie blue staining. Similar procedures were used to verify the interaction of AtLURE1.2 with the other LRR proteins. […]
the presence or absence of AtLURE1.2 in vitro. […]
assay. Left panel: gel-filtration profile of the AtPRK3LRR and AtPRK6LRR proteins.
A280 (mAU), […] at 280 nm. Right panel: Coomassie blue staining of the peak fractions shown on the top following SDS–PAGE. M, molecular weight ladder (kDa). Numbers on top of SDS-PAGE indicate elution […]
AtLURE1.2 under gel filtration assay. The assays were performed as described in […]
(1 picture or pasted object on this page, not shown here)

[2] = tested on: AtPRK6^LRR; experiment: Gel filtration assay with AtPRK6^LRR; type: binding, Arabidopsis thaliana
Excerpt: The genes of AtPRK3 ^LRR (residues 1–241), AtPRK4 ^LRR (residues 1–277), AtPRK5 ^LRR (residues 1–279), AtPRK6 ^LRR (residues 1–262), MIK1 ^LRR (residues 1–633), MIK2 ^LRR (residues 1–707) were amplified from Arabidopsis cDNA library by PCR and cloned into pFastBac-1 vector with a C-terminal 6 × His-tag. Their identities were confirmed by sequencing. The mature form of AtLURE1.1 (residues 20–94), AtLURE1.2 (residues 20–90), AtLURE1.3 (residues 21–91), and AtLURE1.4 (residues 20–90) were cloned into pFastBac-1 vector, with a modified N-terminal hemolin signal peptide and 6 × His-SUMO tag. Point mutation constructs were generated by QuickChange Site-Directed Mutagenesis Kit (Strategene). All the proteins were expressed using the Bac-to-Bac baculovirus expression system (Invitrogen) in High Five cells at 22 °C. One liter of High Five cells (2.0 × 10^6 cells mL^−1) cultured in the medium from Expression Systems was infected with 25 ml recombinant baculovirus and the media was collected after 72 h of infection. Secreted LRR proteins were purified using Ni-NTA (Novagen) and size-exclusion chromatography (Hiload 200, GE Healthcare) in buffer containing 10 mM Bis-Tris pH 6.0 and 100 mM NaCl. The His-SUMO tag of the AtLURE proteins was removed by Prescission Protease at 4 °C overnight in buffer containing 25 mM Tris pH 8.0 and 150 mM NaCl. […]

[3] = tested on: AtPRK6^LRR; experiment: In vitro pull-down with AtPRK6^LRR; type: binding, Arabidopsis thaliana; conditions: Ni-NTA, excess AtLURE1.2, on ice 30 min, washed five times, 25 mM Tris pH 8.0, 150 mM NaCl; SDS-PAGE, Coomassie blue; repeated at least three times
Excerpt: The genes of AtPRK3 ^LRR (residues 1–241), AtPRK4 ^LRR (residues 1–277), AtPRK5 ^LRR (residues 1–279), AtPRK6 ^LRR (residues 1–262), MIK1 ^LRR (residues 1–633), MIK2 ^LRR (residues 1–707) were amplified from Arabidopsis cDNA library by PCR and cloned into pFastBac-1 vector with a C-terminal 6 × His-tag. Their identities were confirmed by sequencing. The mature form of AtLURE1.1 (residues 20–94), AtLURE1.2 (residues 20–90), AtLURE1.3 (residues 21–91), and AtLURE1.4 (residues 20–90) were cloned into pFastBac-1 vector, with a modified N-terminal hemolin signal peptide and 6 × His-SUMO tag. Point mutation constructs were generated by QuickChange Site-Directed Mutagenesis Kit (Strategene). All the proteins were expressed using the Bac-to-Bac baculovirus expression system (Invitrogen) in High Five cells at 22 °C. One liter of High Five cells (2.0 × 10^6 cells mL^−1) cultured in the medium from Expression Systems was infected with 25 ml recombinant baculovirus and the media was collected after 72 h of infection. Secreted LRR proteins were purified using Ni-NTA (Novagen) and size-exclusion chromatography (Hiload 200, GE Healthcare) in buffer containing 10 mM Bis-Tris pH 6.0 and 100 mM NaCl. The His-SUMO tag of the AtLURE proteins was removed by Prescission Protease at 4 °C overnight in buffer containing 25 mM Tris pH 8.0 and 150 mM NaCl. All AtLURE proteins were further cleaned by size-exclusion chromatography (Hiload 200, GE Healthcare). For co-expression of AtPRK6^LRR and AtLURE1, one liter of High Five cells were co-infected with 20 and 30 ml recombinant baculovirus of AtPRK6^LRR and AtLURE1, respectively. Secreted AtPRK6^LRR-AtLURE1 complexes were processed with Prescission Protease digestion and then purified as described above. Expression and purification procedures of all the mutants were essentially the same as those of AtPRK6^LRR and AtLURE1.2.
The purified His-tagged ectodomains of AtPRK proteins and MIK1, 2 were used to pull-down the AtLURE1.2 peptide. […] All the eluted samples were analyzed by SDS-PAGE and visualized by Coomassie blue staining. […]

B1: AtLURE1.2: mature form of AtLURE1.2 (residues 20–90), defensin-like cysteine-rich peptide expressed in insect cells (protein)
chain: TLINGSSDEERTYSFSPTTSPFDPRSLNQELKIGRIGYCFDCARACMRRGKYIRTCSFERKLCRCSISDIK
modifications: left off: His6, N-terminal, cleaved | SUMO, N-terminal, cleaved
notes: mature form of AtLURE1.2 (residues 20–90), defensin-like cysteine-rich peptide expressed in insect cells
AtPRK3^LRR-AtPRK6^LRR complex formation in the presence of AtLURE1.2 [1]: do not form a complex; also recorded: failed to detect AtPRK6^LRR−AtPRK3^LRR interaction
effect on monomeric state of AtPRK6^LRR in solution ([2]; gel filtration): did not alter the monomeric status; also recorded: does not alter the monomeric state
complex formation in gel filtration ([2]; purified proteins mixed at molar ratio about 1:3, 4 °C 30 min, 10 mM Bis-Tris pH 6.0, 100 mM NaCl): formed a stable complex
interaction in pull-down assay [3]: strongly interacted
